Data published in patent publication US20100260853A1 (published 2010).
Where “and” joins values, the source holds several entries; their conditions need not be identical. Equal values may be shown once.

What was measured:
GLP receptor = assay: cell-based or functional assay
human IL-13 [1] = molecular target: T1, human IL-13 (human, UniProt P35225 35-146, limits assumed, biotinylated in the binding ELISA and on the Biacore chip); assay: cell-based or functional assay
cynomolgous IL-13 [2] = molecular target: T2, cynomolgous IL-13 (cynomolgous, UniProt Q0PW92 19-132, Presumably biotinylated for capture on the streptavidin (SA) chip; biotinylation sites not stated.); assay: cell-based or functional assay
T2 sequence (Q0PW92 entry or part of it limits assumed, form in doubt): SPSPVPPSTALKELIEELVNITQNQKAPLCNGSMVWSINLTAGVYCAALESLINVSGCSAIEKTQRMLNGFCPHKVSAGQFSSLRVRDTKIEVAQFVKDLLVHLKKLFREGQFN

human IL-13 [3] = molecular target: T1, human IL-13; assay: binding ELISA: biotinylated human IL-13 on NeutrAvidin plate, bound dAb detected with anti-human Ig (VH specific)
human IL-13 [4] = molecular target: T1, human IL-13; assay: 'Binding Assay' on hIL-13 as headed in Table 12; PARI LC*, aerosol sample at 29 mins
cynomolgous IL-13 [5] = molecular target: T2, cynomolgous IL-13; assay: Biacore, about 100 RU cynomolgous IL-13 on SA chip, dAb in flow
human IL-13 [6] = molecular target: T1, human IL-13; assay: 'Binding Assay' on hIL-13 as headed in Table 12; PARI LC*, aerosol sample at 15 mins
human IL-13 [7] = molecular target: T1, human IL-13; assay: 'Binding Assay' on hIL-13 as headed in Table 12; PARI LC*, aerosol sample at 3 mins
human IL-13 [8] = molecular target: T1, human IL-13; assay: 'Binding Assay' on hIL-13 as headed in Table 12; PARI LC*, reservoir sample at 15 mins
human IL-13 [9] = molecular target: T1, human IL-13; assay: Biacore, about 100 RU biotinylated human IL-13 on SA chip, dAb in flow
human IL-13 [10] = molecular target: T1, human IL-13; assay: sandwich ELISA: dAb mixed with hIL-13, capture and detection by mouse anti-human IL-13 antibodies, OD450
human IL-13 [11] = molecular target: T1, human IL-13; assay: 'Binding Assay' on hIL-13 as headed in Table 12; PARI LC*, reservoir sample at 3 mins
human IL-13 [12] = molecular target: T1, human IL-13; assay: 'Binding Assay' on hIL-13 as headed in Table 12; PARI LC*, reservoir sample at 29 mins
human IL-13 [13] = molecular target: T1, human IL-13; assay: cell-based or functional assay; remark: listed apart in the source
cynomolgous IL-13 [14] = molecular target: T2, cynomolgous IL-13; assay: cell-based or functional assay; remark: listed apart in the source
human IL-13 [15] = molecular target: T1, human IL-13; assay: 'Binding Assay' on hIL-13 as headed in Table 12; 20 mg/ml in PBS, before nebulisation
human IL-13 [16] = molecular target: T1, human IL-13; assay: sandwich ELISA on hIL-13; 4.7 mg/mL in phosphate/PEG1000/sucrose, E-flow, material remaining in cup
human IL-13 [17] = molecular target: T1, human IL-13; assay: sandwich ELISA on hIL-13; 2.3 mg/mL in phosphate/PEG1000/sucrose, E-flow, aerosolized material
human IL-13 [18] = molecular target: T1, human IL-13; assay: sandwich ELISA on hIL-13; 2.3 mg/mL in phosphate/PEG1000/sucrose, LC+, material remaining in cup
human IL-13 [19] = molecular target: T1, human IL-13; assay: sandwich ELISA on hIL-13; 2.6 mg/mL in PBS, E-flow, aerosolized material
human IL-13 [20] = molecular target: T1, human IL-13; assay: sandwich ELISA on hIL-13; 4.7 mg/mL in phosphate/PEG1000/sucrose, E-flow, aerosolized material
human IL-13 [21] = molecular target: T1, human IL-13; assay: sandwich ELISA on hIL-13; 2.6 mg/mL in PBS, LC+, aerosolized material
human IL-13 [22] = molecular target: T1, human IL-13; assay: sandwich ELISA on hIL-13; 2.6 mg/mL in PBS, E-flow, material remaining in cup
human IL-13 [23] = molecular target: T1, human IL-13; assay: sandwich ELISA on hIL-13; material in 1xPBS, not nebulised
human IL-13 [24] = molecular target: T1, human IL-13; assay: sandwich ELISA on hIL-13; 2.6 mg/mL in PBS, LC+, material remaining in cup
human IL-13 [25] = molecular target: T1, human IL-13; assay: sandwich ELISA on hIL-13; 4.7 mg/mL in phosphate/PEG1000/sucrose, LC+, aerosolized material
human IL-13 [26] = molecular target: T1, human IL-13; assay: sandwich ELISA on hIL-13; 4.7 mg/mL in phosphate/PEG1000/sucrose, LC+, material remaining in cup
human IL-13 [27] = molecular target: T1, human IL-13; assay: sandwich ELISA on hIL-13; 2.3 mg/mL in phosphate/PEG1000/sucrose, LC+, aerosolized material

Exendin 4 (G4S)3 DOM7h-14 fusion (DAT0115) (from UniProt P26349)
DAT01 cell assay EC50, CHO 6CRE/luciferase reporter (sample: DAT0115 LC+ aerosol 3 mins) (GLP receptor): 0.296 nM | DAT01 cell assay EC50, CHO 6CRE/luciferase reporter (sample: DAT0115 LC+ aerosol 15 mins) (GLP receptor): 0.316 nM | DAT01 cell assay EC50, CHO 6CRE/luciferase reporter (sample: DAT0115 LC+ aerosol 29 mins) (GLP receptor): 0.142 nM | DAT01 cell assay EC50, CHO 6CRE/luciferase reporter (sample: DAT0115 LC+ cup 3 mins) (GLP receptor): 0.725 nM | DAT01 cell assay EC50, CHO 6CRE/luciferase reporter (sample: DAT0115 LC+ cup 15 mins) (GLP receptor): 0.453 nM | DAT01 cell assay EC50, CHO 6CRE/luciferase reporter (sample: DAT0115 LC+ cup 29 mins) (GLP receptor): 0.445 nM | DAT01 cell assay EC50, CHO 6CRE/luciferase reporter (sample: DAT0115 T0) (GLP receptor): 0.178 nM | DAT01 cell assay EC50, CHO 6CRE/luciferase reporter (sample: DAT0115 e-Flow aerosol 3 mins) (GLP receptor): 0.798 nM | DAT01 cell assay EC50, CHO 6CRE/luciferase reporter (sample: DAT0115 e-Flow cup 3 mins) (GLP receptor): 0.535 nM

B1: DOM10-275-78 (other)
chain: EVQLLESGGGLVQPGGSLRLSCVASGFTFDVAEMDWVRQAPGKGLEWVSTISPSRRGTYYADSVKGRFTISRDNSKNTLYLQMNSLRAEDTAVYYCAKAYTGRSLWGPGTLVTVSS
HEK assay hIL-13 EC50 (HEK293 STAT6 SEAP reporter, 6 ng/ml IL-13) (human IL-13 [1]): 2.5 nM | HEK assay cIL-13 EC50 (HEK293 STAT6 SEAP reporter) (cynomolgous IL-13 [2]): 1.4 nM | EC50 (human IL-13 [3]): 1.3 nM | IC50 (human IL-13 [4]): 1.1 nM | Kd (cynomolgous IL-13 [5]): 0.32 to 0.75 nM | IC50 (human IL-13 [6]): 1 nM | IC50 (human IL-13 [7]): 1.1 nM | IC50 (human IL-13 [8]): 1.2 nM | Kd (human IL-13 [9]): 0.072 to 0.1 nM | EC50 (human IL-13 [10]): 3.33 nM | IC50 (human IL-13 [11]): 1.1 nM | IC50 (human IL-13 [12]): 1.1 nM | HEK cell assay EC50, Hu IL-13 (sample: DOM10-275-78 aerosol 3 mins) (human IL-13 [13]): 1.8 nM | HEK cell assay EC50, Hu IL-13 (sample: DOM10-275-78 aerosol 15 mins) (human IL-13 [13]): 1.01 nM | HEK cell assay EC50, Hu IL-13 (sample: DOM10-275-78 aerosol 29 mins) (human IL-13 [13]): 0.62 nM | HEK cell assay EC50, Hu IL-13 (sample: DOM10-275-78 cup 3 mins) (human IL-13 [13]): 1.45 nM | HEK cell assay EC50, Hu IL-13 (sample: DOM10-275-78 cup 15 mins) (human IL-13 [13]): 2.18 nM | HEK cell assay EC50, Hu IL-13 (sample: DOM10-275-78 cup 29 mins) (human IL-13 [13]): 0.48 nM | HEK cell assay EC50, Hu IL-13 (sample: DOM10-275-78 start) (human IL-13 [13]): 0.58 nM | HEK cell assay EC50, Cyno IL-13 (sample: DOM10-275-78 aerosol 3 mins) (cynomolgous IL-13 [14]): 0.99 nM | HEK cell assay EC50, Cyno IL-13 (sample: DOM10-275-78 aerosol 15 mins) (cynomolgous IL-13 [14]): 0.95 nM | HEK cell assay EC50, Cyno IL-13 (sample: DOM10-275-78 aerosol 29 mins) (cynomolgous IL-13 [14]): 0.74 nM | HEK cell assay EC50, Cyno IL-13 (sample: DOM10-275-78 cup 3 mins) (cynomolgous IL-13 [14]): 1.77 nM | HEK cell assay EC50, Cyno IL-13 (sample: DOM10-275-78 cup 15 mins) (cynomolgous IL-13 [14]): 1.52 nM | HEK cell assay EC50, Cyno IL-13 (sample: DOM10-275-78 cup 29 mins) (cynomolgous IL-13 [14]): 0.74 nM | HEK cell assay EC50, Cyno IL-13 (sample: DOM10-275-78 start) (cynomolgous IL-13 [14]): 0.93 nM | IC50 (human IL-13 [15]): 1.2 nM

B2: DOM10-53-474 (other)
chain: GVQLLESGGGLVQPGGSLRLSCAASGFTFAWYDMGWVRQAPGKGLEWVSSIDWHGEVTYYADSVKGRFTISRDNSKNTLYLQMNSLRAEDTAVYYCATAEDEPGYDYWGQGTLVTVSS
IC50 (human IL-13 [16]): 0.0214 nM | HEK assay hIL-13 EC50 (HEK293 STAT6 SEAP reporter, 6 ng/ml IL-13) (human IL-13 [1]): 0.63 nM | HEK assay cIL-13 EC50 (HEK293 STAT6 SEAP reporter) (cynomolgous IL-13 [2]): 11.1 nM | IC50 (human IL-13 [17]): 0.0322 nM | EC50 (human IL-13 [3]): 1.08 nM | IC50 (human IL-13 [18]): 0.0317 nM | Kd (cynomolgous IL-13 [5]): 2 nM | IC50 (human IL-13 [19]): 0.0351 nM | IC50 (human IL-13 [20]): 0.0185 nM | IC50 (human IL-13 [21]): 0.023 nM | Kd (human IL-13 [9]): 0.028 nM | EC50 (human IL-13 [10]): 0.057 nM | IC50 (human IL-13 [22]): 0.0224 nM | IC50 (human IL-13 [23]): 0.0458 nM and 0.0356 nM and 0.0289 nM and 0.0269 nM | IC50 (human IL-13 [24]): 0.0339 nM | IC50 (human IL-13 [25]): 0.0149 nM | IC50 (human IL-13 [26]): 0.0129 nM | IC50 (human IL-13 [27]): 0.0348 nM | HEK cell assay EC50, Hu IL-13 (sample: DOM10-53-474 standard) (human IL-13 [13]): 0.62 nM | HEK cell assay EC50, Cyno IL-13 (sample: DOM10-53-474 standard) (cynomolgous IL-13 [14]): 15.2 nM
